Source: EP0561496A2 (NEW ENGLAND MEDICAL CENTER HOSPITALS, INC., priority 1992, dated 1993)

Assays:
[1] = biological target: canine parietal cell gastrin receptor (recombinant, clone GR-1, expressed in transfected COS-7 cells) (canine); assay: cell-based or functional assay
[2] = biological target: canine parietal cell gastrin receptor (recombinant, clone GR-1, expressed in transfected COS-7 cells) (canine); assay: competition against 125I-CCK-8, isolated membranes of GR-1 transfected COS-7 cells
[3] = biological target: canine parietal cell gastrin receptor (recombinant, clone GR-1, expressed in transfected COS-7 cells) (canine); assay: competition against 125I-CCK-8, intact GR-1 transfected COS-7 cells
[4] = biological target: T1, recombinant GR-1 receptor (canine parietal cell gastrin receptor) (Canis lupus familiaris, UniProt P30552); assay: Competition binding in isolated plasma membranes from GR-1 transfected COS-7 cells; settings: isolated membranes from transiently transfected COS-7 cells, 60 min at 22°C; read-out: IC₅₀
T1 construct: expressed in transfected cells; host or cells: COS-7 cells transiently transfected with GR-1 in pCDNA-1
T1 sequence (P30552 1-453): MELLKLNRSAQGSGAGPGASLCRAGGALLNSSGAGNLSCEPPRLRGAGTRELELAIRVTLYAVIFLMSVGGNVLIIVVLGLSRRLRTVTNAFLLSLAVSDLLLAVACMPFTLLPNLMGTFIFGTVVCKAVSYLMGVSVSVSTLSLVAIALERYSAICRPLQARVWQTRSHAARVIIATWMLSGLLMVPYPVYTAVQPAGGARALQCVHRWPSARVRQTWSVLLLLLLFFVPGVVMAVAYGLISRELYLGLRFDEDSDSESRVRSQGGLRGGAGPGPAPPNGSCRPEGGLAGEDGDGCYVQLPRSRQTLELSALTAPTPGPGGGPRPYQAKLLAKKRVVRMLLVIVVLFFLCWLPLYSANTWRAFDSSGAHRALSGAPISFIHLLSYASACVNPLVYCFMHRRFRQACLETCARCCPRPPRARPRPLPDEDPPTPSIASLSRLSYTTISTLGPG
Procedure: Binding parameters were also measured in isolated plasma membranes from COS-7 cells transfected with GR-1. Binding was performed for 60 min at 22°C.

[5] = biological target: T1, recombinant GR-1 receptor (canine parietal cell gastrin receptor); assay: Competition binding of 125I-CCK-8 to intact GR-1 transfected COS-7 cells
Procedure: COS-7 cells (1.5x 10⁶) were plated in 10 cm culture dishes (Nunc) and grown in DMEM/ 10% fetal calf serum, 5% CO₂ at 37°C. […] Twenty-four hours following transfection, cells were split into 24-well dishes (Nunc), 5000 cells/well. […] Equilibrium binding occurred after incubation for 80 min at 37°C. Cell monolayers were subsequently washed three times and bound radioactivity was quantified after cell hydrolysis in 1 N NaOH.

[6] = biological target: T2, human brain CCK-B receptor (Homo sapiens, UniProt P32239); assay: Competition binding of 125I CCK-8 to COS-7 cells transfected with hCCKB-pcDNA I; settings: recombinant human CCK-B receptor
T2 construct: isolate the corresponding full length human CCK-B receptor cDNA from a fetal (week 23) human brain library; expressed in transfected cells; host or cells: COS-7 cells transiently transfected with hCCKB-pcDNA I
T2 sequence (P32239 1-447): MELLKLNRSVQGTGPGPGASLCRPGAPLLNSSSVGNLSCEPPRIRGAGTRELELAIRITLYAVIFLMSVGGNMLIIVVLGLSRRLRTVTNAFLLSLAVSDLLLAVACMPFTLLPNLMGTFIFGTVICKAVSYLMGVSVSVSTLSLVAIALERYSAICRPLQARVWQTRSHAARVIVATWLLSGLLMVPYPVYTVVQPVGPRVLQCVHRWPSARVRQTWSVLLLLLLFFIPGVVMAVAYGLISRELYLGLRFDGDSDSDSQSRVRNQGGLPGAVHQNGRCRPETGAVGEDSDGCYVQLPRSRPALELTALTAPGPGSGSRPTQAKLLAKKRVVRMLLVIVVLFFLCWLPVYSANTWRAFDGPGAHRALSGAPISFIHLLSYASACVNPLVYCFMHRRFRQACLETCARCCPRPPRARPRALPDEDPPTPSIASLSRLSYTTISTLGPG

[7] = biological target: canine parietal cell gastrin receptor (recombinant, clone GR-1, expressed in transfected COS-7 cells) (canine); assay: radioligand saturation binding, GR-1 transfected COS-7 cells
[8] = biological target: canine parietal cell gastrin receptor (recombinant, clone GR-1, expressed in transfected COS-7 cells) (canine); assay: 125I-CCK-8 binding to GR-1 transfected COS-7 cells, no competitor (FIG. 3)
[9] = biological target: gastrin receptor on native canine parietal cells (canine); assay: radioligand saturation binding, native parietal cells

gastrin I (from UniProt P01350 76-92) (peptide)
free cytosolic calcium, [Ca²⁺] [1]: 142 nM | free cytosolic calcium, [Ca²⁺], after chelation of extracellular calcium by EGTA (2.5 mM) [1]: 88.5 nM | level of Ins-1,3,4,5-P₄, increase [1]: 272% | level of Ins-1,4,5-P₃, increase over control [1]: 741% | IC50 [2]: 0.4 nM | IC50 [3]: 0.26 nM

CSCC[C@H](NC(=O)[C@H](Cc1ccc(O)cc1)NC(=O)[C@@H](N)CC(=O)O)C(=O)NCC(=O)N[C@@H](Cc1c[nH]c2ccccc12)C(=O)N[C@@H](CCSC)C(=O)N[C@@H](CC(=O)O)C(=O)N[C@@H](Cc1ccccc1)C(N)=O [CCK-8-desulfate]
IC50 [4]: 1.5 nM | IC50 ([5]; intact GR-1 transfected COS-7 cells, 40 pM 125I-CCK-8 radioligand, 80 min at 37°C, read-out: IC₅₀): 1.4 nM

CCK-8-desulfate (from UniProt P06307 96-103) (peptide)
IC50 [2]: 1.5 nM

Cc1cccc(NC(=O)N[C@@H]2N=C(c3ccccc3)c3ccccc3N(C)C2=O)c1 [L365,260]
higher affinity than L364,718 [6]: approximately 40 fold | IC50 [5]: 130 nM

CN1C(=O)[C@@H](NC(=O)c2cc3ccccc3[nH]2)N=C(c2ccccc2)c2ccccc21 [L364,718]
IC50 ([5]; read-out: IC₅₀): 19 nM

¹²⁵I-CCK-8 (from UniProt P06307 96-103) (peptide)
Kd [7]: 0.08 nM | Maximum binding in the absence of competitor (100%) [8]: 5.2 pM | Kd [9]: 0.27 nM

CCK-8 (from UniProt P06307 96-103) (peptide)
IC50 [2]: 0.08 nM | IC50 [3]: 0.09 nM
